Source: article PMC5469796, “Interaction of PKR with single-stranded RNA”
“And” between values parts separate entries of the source, which are not always exact repeats. Equal values may be shown once.

Columns and labels:
242-kinase [1] = biological target: 242-kinase (UniProt P19525); test: sedimentation velocity AUC; settings: AU75: 75 mM HEPES pH 7.5, 75 mM NaCl, 0.1 mM EDTA, 0.1 mM TCEP, 20 °C, 50,000 rpm, 260 nm; errors are confidence intervals (95% joint stated for Table 2) …
229-kinase [2] = biological target: 229-kinase (UniProt P19525); test: sedimentation velocity AUC; settings: AU75: 75 mM HEPES pH 7.5, 75 mM NaCl, 0.1 mM EDTA, 0.1 mM TCEP, 20 °C, 50,000 rpm, 260 nm; errors are confidence intervals (95% joint stated for Table 2) …
229-kinase [3] = biological target: 229-kinase (UniProt P19525 229-551); test: sedimentation velocity AUC; Kd1, sequential 2:1; AU75: 75 mM HEPES pH 7.5, 75 mM NaCl, 0.1 mM EDTA, 0.1 mM TCEP, 20 °C, 50,000 rpm, 260 nm; errors are confidence intervals (95% joint stated for Table 2); crosslinking in AU75 + 10 mM EDTA, 0.5 µM RNA, 1 µM protein, on ice before UV; settings: protein: recombinant; tags: TEV-cleaved, extra N-terminal Gly; chain copies: 2; single strand
185-kinase = 185-kinase (UniProt P19525 185-551); test: as above; settings: protein: recombinant; tags: TEV-cleaved, extra N-terminal Gly; chain copies: 2; single strand
PKR dsRBD [4] = biological target: T1, PKR dsRBD (UniProt P19525 1-184); test: as above; settings: protein: recombinant; chain copies: 2; single strand
PKR full length = PKR full length (UniProt P19525 1-551); test: as above; settings: protein: recombinant, chain copies: 2
242-kinase [5] = biological target: 242-kinase (UniProt P19525 242-551); test: sedimentation velocity AUC; 1:1 model; second protein not detected; AU75: 75 mM HEPES pH 7.5, 75 mM NaCl, 0.1 mM EDTA, 0.1 mM TCEP, 20 °C, 50,000 rpm, 260 nm; errors are confidence intervals (95% joint stated for Table 2); crosslinking in AU75 + 10 mM EDTA, 0.5 µM RNA, 1 µM protein, on ice before UV; settings: protein: recombinant; tags: TEV-cleaved; single strand
PKR dsRBD [6] = biological target: T1, PKR dsRBD; test: sedimentation velocity AUC; Kd1; footnote b not in material; AU75: 75 mM HEPES pH 7.5, 75 mM NaCl, 0.1 mM EDTA, 0.1 mM TCEP, 20 °C, 50,000 rpm, 260 nm; errors are confidence intervals (95% joint stated for Table 2); crosslinking in AU75 + 10 mM EDTA, 0.5 µM RNA, 1 µM protein, on ice before UV; settings: protein: recombinant; chain copies: 2; weak predicted secondary structure
[7] = weak predicted secondary structure

T1 sequence (P19525 1-184): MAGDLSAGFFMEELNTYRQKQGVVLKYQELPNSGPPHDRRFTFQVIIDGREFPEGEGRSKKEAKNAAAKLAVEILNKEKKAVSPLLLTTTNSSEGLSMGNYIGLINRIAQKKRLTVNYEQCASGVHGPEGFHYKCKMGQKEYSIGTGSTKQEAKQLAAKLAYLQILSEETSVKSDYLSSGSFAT
Sequence of PKR full length (P19525 whole entry): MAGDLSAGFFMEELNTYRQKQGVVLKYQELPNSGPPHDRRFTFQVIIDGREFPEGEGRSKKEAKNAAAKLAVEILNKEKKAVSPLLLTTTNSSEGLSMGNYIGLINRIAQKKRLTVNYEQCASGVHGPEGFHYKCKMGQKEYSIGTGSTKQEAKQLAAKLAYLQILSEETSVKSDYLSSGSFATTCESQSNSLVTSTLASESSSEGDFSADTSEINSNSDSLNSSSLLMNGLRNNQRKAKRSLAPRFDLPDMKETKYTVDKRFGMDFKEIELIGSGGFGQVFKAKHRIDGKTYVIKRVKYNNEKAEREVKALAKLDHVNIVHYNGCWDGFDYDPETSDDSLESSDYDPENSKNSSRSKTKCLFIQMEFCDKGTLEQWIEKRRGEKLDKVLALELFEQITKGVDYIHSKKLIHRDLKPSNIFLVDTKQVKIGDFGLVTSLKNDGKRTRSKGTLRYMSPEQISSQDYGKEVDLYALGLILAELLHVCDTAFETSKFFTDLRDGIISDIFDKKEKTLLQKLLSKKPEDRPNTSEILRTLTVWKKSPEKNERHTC
Sequence of 229-kinase (UniProt P19525) (P19525 229-551): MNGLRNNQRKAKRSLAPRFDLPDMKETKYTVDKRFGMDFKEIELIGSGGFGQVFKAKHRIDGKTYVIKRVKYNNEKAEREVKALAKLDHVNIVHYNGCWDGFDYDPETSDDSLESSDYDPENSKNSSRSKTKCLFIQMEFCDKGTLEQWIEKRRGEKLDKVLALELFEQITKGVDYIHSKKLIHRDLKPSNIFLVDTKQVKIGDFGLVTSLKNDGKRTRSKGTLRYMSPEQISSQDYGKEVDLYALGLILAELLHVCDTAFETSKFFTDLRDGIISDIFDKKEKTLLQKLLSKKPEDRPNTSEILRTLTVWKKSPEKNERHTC
Sequence of 229-kinase (UniProt P19525 229-551) (P19525 229-551): as above
Sequence of 185-kinase (P19525 185-551): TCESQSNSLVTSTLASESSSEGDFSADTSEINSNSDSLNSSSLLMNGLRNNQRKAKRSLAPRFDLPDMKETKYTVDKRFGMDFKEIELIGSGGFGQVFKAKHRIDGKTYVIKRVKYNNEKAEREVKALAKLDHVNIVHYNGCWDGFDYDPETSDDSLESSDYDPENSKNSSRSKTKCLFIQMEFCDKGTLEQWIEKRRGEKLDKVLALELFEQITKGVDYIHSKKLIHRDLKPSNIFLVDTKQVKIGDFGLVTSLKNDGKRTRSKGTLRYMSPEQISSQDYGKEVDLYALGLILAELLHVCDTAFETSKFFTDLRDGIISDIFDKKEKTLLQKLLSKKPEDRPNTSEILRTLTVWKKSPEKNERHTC
Sequence of 242-kinase (UniProt P19525) (P19525 242-551): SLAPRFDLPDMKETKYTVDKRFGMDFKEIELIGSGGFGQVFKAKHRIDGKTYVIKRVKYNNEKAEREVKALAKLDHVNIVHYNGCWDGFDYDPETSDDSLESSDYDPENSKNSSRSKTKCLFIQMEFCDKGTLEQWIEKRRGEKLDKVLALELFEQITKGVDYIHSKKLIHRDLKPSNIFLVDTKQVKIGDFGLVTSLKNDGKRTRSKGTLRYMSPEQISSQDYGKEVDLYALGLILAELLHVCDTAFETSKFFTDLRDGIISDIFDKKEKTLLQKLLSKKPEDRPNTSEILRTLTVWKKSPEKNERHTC
Sequence of 242-kinase (UniProt P19525 242-551) (P19525 242-551): as above

Molecule | Kd (229-kinase [3]) [nM] | Kd (PKR full length; [7]) [nM] | Kd (PKR dsRBD [6]) [µM] | further results
ds30 |  |  |  | Kd (242-kinase [1]): 19.9 µM; Kd (229-kinase [2]): 3.8 µM and 3.27 µM
UUUUUUUUUUUUUUUUUUUUUUUUUUUUUU (ssRNA) [U30] | 1910 |  |  | Kd (185-kinase): 31.9 µM; Kd (PKR dsRBD [4]): 8.42 µM; Kd (PKR full length; single strand): 3510 nM; Kd (242-kinase [5]): 90 µM
GGAGAACUUAAUGCCGGAGACCAAAGACUU (ssRNA, 5'-OH) [Het30] |  | 1070 | 8.21 | 
TTTTTTTTTTTTTTTTTTTTTTTTTTTTTT (ssDNA) [dT30] | 2590 |  |  | 
GGAGAACUUAAUGCCGGAGACCAAAGACUU (ssRNA, 5'-triphosphate) [ppp-Het30] |  | 825 | 5.36 | 
